Measurements from publication PMC8812994.

Molecular target: rMjShoc2 (recombinant MjShoc2) (Marsupenaeus japonicus)
Assay: ITC; MICROCAL PEAQ-ITC; rFlaA (2 mM) in the syringe, rMjShoc2 (0.2 mM) in the cell; 2 μl injections, 25°C; one set of sites model

Substance: rFlaA (recombinant FlaA of the ITC assay) (from UniProt Q60246 1-379) (natural protein)
- Kd: 10 µM
